First the molecules themselves.
B1: ZFY -56T (minor) (dsDNA)
DNA 1: GGCGGAGGGGGCCTAACTACCATCCC
DNA 2: GGGATGGTAGTTAGGCCCCCTCCGCC
B2: GTPBP6 -24G (rs1393008234 WT) (dsDNA)
DNA 1: ATCACGAGCACGTGATGAGGAGCGGC
DNA 2: GCCGCTCCTCATCACGTGCTCGTGAT
B3: ASMT -30A (rs1402972626 minor) (dsDNA)
DNA 1: GGTGACCTTTTGTACCCAGAATAGGT
DNA 2: ACCTATTCTGGGTACAAAAGGTCACC
B4: CDY2A -24 minor (printed -24t, sequence has C) (dsDNA)
DNA 1: AGAATGTTCCATACAATCGTCATAGC
DNA 2: GCTATGACGATTGTATGGAACATTCT
B5: CDY2A -24 WT (printed -24G, sequence has T) (dsDNA)
DNA 1: AGAATGTTCCATATAATCGTCATAGC
DNA 2: GCTATGACGATTATATGGAACATTCT
B6: ZFY -56C (WT) (dsDNA)
DNA 1: GGCGGAGGGGGCCCAACTACCATCCC
DNA 2: GGGATGGTAGTTGGGCCCCCTCCGCC
B7: ASMT -30G (rs1402972626 WT) (dsDNA)
DNA 1: GGTGACCTTTTGTGCCCAGAATAGGT
DNA 2: ACCTATTCTGGGCACAAAAGGTCACC
B8: GTPBP6 -24T (rs1393008234 minor) (dsDNA)
DNA 1: ATCACGAGCACGTTATGAGGAGCGGC
DNA 2: GCCGCTCCTCATAACGTGCTCGTGAT
B9: SHOX -45G (rs1452787381 minor) (dsDNA)
DNA 1: GAGGTCGCCGCGTGTAAATAGTGAGA
DNA 2: TCTCACTATTTACACGCGGCGACCTC
B10: SHOX -45A (rs1452787381 WT) (dsDNA)
DNA 1: GAGGTCGCCGCGTATAAATAGTGAGA
DNA 2: TCTCACTATTTATACGCGGCGACCTC

One series has as its target TBP (Homo sapiens) (UniProt P20226).
Test: not given
The settings on record: cited from earlier work.
The Kd is the equilibrium constant for the complex coming apart. In the case of TBP (from UniProt P20226), the Kd is 4 nM.

In a further series the target is T1, TBP (TATA-binding protein) (human, UniProt P20226 1-339). Put plainly: EMSA; 2 nM TBP; EMSA with 2 nM TBP and varied ODN concentrations; Kd from reaction rates vs ODN concentration (GraphPad Prism 5); buffer, salt, pH and temperature not given in. The settings on record: protein: recombinant; blunt. (In general: In EMSA bound probe runs differently from free probe, usually more slowly.)
T1 sequence (P20226 whole entry): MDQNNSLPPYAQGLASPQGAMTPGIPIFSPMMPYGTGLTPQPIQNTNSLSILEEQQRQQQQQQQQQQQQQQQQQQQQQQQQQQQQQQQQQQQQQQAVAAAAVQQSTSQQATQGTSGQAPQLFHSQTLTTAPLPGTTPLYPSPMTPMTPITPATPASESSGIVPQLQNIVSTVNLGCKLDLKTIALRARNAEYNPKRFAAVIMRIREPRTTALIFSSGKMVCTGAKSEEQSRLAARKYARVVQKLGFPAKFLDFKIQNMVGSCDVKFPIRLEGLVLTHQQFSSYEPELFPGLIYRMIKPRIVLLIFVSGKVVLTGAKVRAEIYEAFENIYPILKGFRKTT
Consider B1, for which the Kd was 2000 ± 1000 nM.

Turning to B2, the dissociation constant Kd was determined as 1500 ± 200 nM.

With B3, the Kd was 1000 ± 300 nM.

Turning to B4, the dissociation constant (Kd) was 500 ± 200 nM.

As for B5, the Kd was 160 ± 30 nM.

In the case of B6, the dissociation constant (Kd) worked out at 1000 ± 400 nM.

Regarding B7, the Kd amounted to 600 ± 300 nM.

In the case of B8, the Kd amounted to 1400 ± 200 nM.

A further series concerns the target T1, TBP (TATA-binding protein). Put plainly: EMSA; 2 nM TBP; Kd from association kinetics; EMSA with 2 nM TBP and varied ODN concentrations; Kd from reaction rates vs ODN concentration (GraphPad Prism 5); buffer, salt, pH and temperature not given in. The settings on record: protein: recombinant; blunt.
With B9, the dissociation constant Kd came to 260 ± 70 nM.

Take B10: the Kd came to 39 ± 7 nM.

Values taken from publication PMC7583315, “Disruptive natural selection by male reproductive potential prevents underexpression of protein-coding genes on the human Y chromosome as a self-domestication syndrome”.
